According to US20190040375A1:

How the values were obtained:
[1] = biological target: gliadin-Rmep digest (mixed gliadins, 250 ug/ml, incubated with Rmep, 57 ug/ml); test: G12 sandwich ELISA; gliadins 250 ug/ml with Rmep 57 ug/ml, 2 h
[2] = biological target: gliadin-Rmep digest (mixed gliadins, 250 ug/ml, incubated with Rmep, 57 ug/ml); test: G12 sandwich ELISA; gliadins 250 ug/ml with Rmep 57 ug/ml, 30 min
[3] = biological target: gliadin-subtilisin A digest (mixed gliadins, 250 ug/ml, incubated with subtilisin A, 57 ug/ml); test: G12 sandwich ELISA; gliadins 250 ug/ml with subtilisin A 57 ug/ml, 2 h
[4] = biological target: gliadin-subtilisin A digest (mixed gliadins, 250 ug/ml, incubated with subtilisin A, 57 ug/ml); test: G12 sandwich ELISA; gliadins 250 ug/ml with subtilisin A 57 ug/ml, t=0 sample
[5] = biological target: gliadin-Rmep digest (mixed gliadins, 250 ug/ml, incubated with Rmep, 57 ug/ml); test: R5 sandwich ELISA; gliadins 250 ug/ml with Rmep 57 ug/ml, t=0 sample
[6] = biological target: gliadin-subtilisin A digest (mixed gliadins, 250 ug/ml, incubated with subtilisin A, 57 ug/ml); test: R5 sandwich ELISA; gliadins 250 ug/ml with subtilisin A 57 ug/ml, 15 min
[7] = biological target: gliadin-subtilisin A digest (mixed gliadins, 250 ug/ml, incubated with subtilisin A, 57 ug/ml); test: R5 sandwich ELISA; gliadins 250 ug/ml with subtilisin A 57 ug/ml, t=0 sample

“G12 monoclonal antibody (AgraQuant ELISA Gluten G12, Romer labs)” was tested, and the decrease in antibody binding [1] was 85%, the decrease in antibody binding [2] was 65% and the degradation of G12 epitopes (ELISA) [3] was 45%. For the same substance, the degradation of G12 epitopes (ELISA) [4] was 22%.
“R5 monoclonal antibody (… Gliadin, R-Biopharm)” was tested, and the reduction in antibody binding compared to the control [5] was 46%, the elimination of R5 epitopes (ELISA) [6] was 100% and the elimination of R5 epitopes (ELISA) [7] was 90%.
